Target: T1, HiNF-P (enriched chromatographic fraction, HeLa) (Homo sapiens, UniProt Q9BQA5 Q9BQA5:1-517)
T1 sequence: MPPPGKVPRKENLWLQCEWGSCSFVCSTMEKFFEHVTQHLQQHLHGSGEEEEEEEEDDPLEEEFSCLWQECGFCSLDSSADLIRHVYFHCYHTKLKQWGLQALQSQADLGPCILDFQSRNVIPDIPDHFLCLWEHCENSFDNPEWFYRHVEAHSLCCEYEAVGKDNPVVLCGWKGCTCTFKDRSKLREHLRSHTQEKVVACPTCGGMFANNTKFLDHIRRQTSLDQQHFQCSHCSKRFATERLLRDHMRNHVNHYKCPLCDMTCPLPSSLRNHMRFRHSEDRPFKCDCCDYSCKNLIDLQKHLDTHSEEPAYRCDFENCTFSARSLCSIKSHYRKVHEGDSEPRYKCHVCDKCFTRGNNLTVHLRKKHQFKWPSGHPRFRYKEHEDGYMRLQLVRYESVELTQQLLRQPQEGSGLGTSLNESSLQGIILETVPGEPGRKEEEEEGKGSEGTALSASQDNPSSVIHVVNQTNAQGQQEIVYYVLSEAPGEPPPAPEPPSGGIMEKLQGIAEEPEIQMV
Assay: UV cross-linking, 65 kDa; 100 uM Zn2+ and Mg2+
Conditions: label: 32P-dCTP
Method: FIG. 6B is a representation of an autoradiogram showing UV cross-linking of HiNF-P/Site II complexes. Oligonucleotides spanning wild type (WT) and mutant (Pmut) Site II sequences were labeled with BrdUTP and ³²P-dCTP then incubated with a fraction (7.5 μl; 0.4M KCl) containing enriched HiNF-P binding activity. The reaction mixture was exposed to UV light (305 nm) for 60 minutes and then digested with DNase I and MNase. Cross-linked, labeled proteins were analyzed using 10% SDS-PAGE and subjected to autoradiography. Molecular weight makers are shown at the left. The arrow indicates the 65 kDa HiNF-P-DNA complex.
Ultraviolet cross-linking experiments were performed by adapting a method described in Ausubel, F. M. et al. (Current Protocols in Molecular Biology. Greene and Wiley, New York, 1989). A radiolabeled and BrdU-substituted probe was prepared by incubating 20 pmol of partially double-stranded HiNF-P-specific oligonucleotide (top strand: 5′-CGC TTT CGG-3′, SEQ ID NO:13; Bottom strand: 5′-CAAGAGTATCGGACCAGATTGAAAACCGAAAGCG-3′, SEQ ID NO:14) with 1 μl of 50× dNTP/BrdUTP solution (containing 50 μM DATP, 50 μM dGTP, 37.5 μM dTTP and 12.5 μM BrdUTP), 150 μCi α-³²P-dCTP and 1 μl of a solution containing 5 mM DTT and 1 μg/μl BSA, in a total reaction volume of 25 μl. […] Following nuclease digestion, the products were analyzed by 10% SDS-PAGE.

B1: BrdU-substituted Site II probe (dsDNA)
DNA 1: CAAGAGTATCGGACCAGATTGAAAACCGAAAGCG
DNA 2: CGCTTTCGGTTTTCAATCTGGTCCGATACTCTTG
modifications: partial BrdU substitution for T in filled-in strand
  binding result: binds

Reference: patent publication US20040142894, “Modulation of cellular proliferation” (published 2004)
